Target: spike, depending on domain and variant
Experiment: ELISA

Sequence of LRRC15-Fc (Q8TF66 22-538): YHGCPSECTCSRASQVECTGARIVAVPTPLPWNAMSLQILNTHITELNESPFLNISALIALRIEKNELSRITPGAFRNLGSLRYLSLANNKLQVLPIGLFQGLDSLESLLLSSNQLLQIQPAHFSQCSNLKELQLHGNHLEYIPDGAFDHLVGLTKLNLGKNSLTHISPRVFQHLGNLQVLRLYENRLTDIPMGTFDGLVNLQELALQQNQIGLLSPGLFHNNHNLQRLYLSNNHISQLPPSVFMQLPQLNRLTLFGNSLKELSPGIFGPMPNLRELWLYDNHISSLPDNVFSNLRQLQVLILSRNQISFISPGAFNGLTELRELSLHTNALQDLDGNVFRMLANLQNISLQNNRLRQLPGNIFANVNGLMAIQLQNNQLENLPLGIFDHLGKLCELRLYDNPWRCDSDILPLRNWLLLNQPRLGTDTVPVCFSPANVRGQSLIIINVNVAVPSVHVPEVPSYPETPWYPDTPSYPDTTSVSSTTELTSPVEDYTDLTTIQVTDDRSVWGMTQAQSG

LRRC15-Fc (from UniProt Q8TF66) (Fc fusion)
Kd: 43 to 148 nM

— PMC8629192
